Laboratory results published in patent US9468682B2, “Compositions and methods for enhancing penetration of biologically active substances into tissues or organs” (Joint-stock company “High Tech”, priority 2013, dated 2016).

Legend:
[1] = Franz diffusion cell skin permeability for insulin, antibiotics and mesotherapy components; settings: FIG. 1; donor insulin 5 IU/ml or 0.25 mg/ml; HPLC
Source text: The receptor solution aliquots were collected at different intervals and analyzed using HPLC.

[2] = Delivery through skin and mucous membranes in animals; assay type: in vivo; settings: with ammonium sulfate; rats and guinea pigs
[3] = In vitro skin permeability, Franz diffusion cell, 3H-labeled substances; settings: Table 4
Method: The vertical Franz diffusion cell was used (PermeGear, Bethlehem, USA) with the effective diffusion surface of 2 cm^2.
The experiments were carried out using the skin of male species of Sprague-Dawley rats, weight 110-120 g, taken from the front abdominal wall. Hair and adipose tissue were removed from the skin; the skin was soaked in normal saline and placed into the diffusion cell. The following solutions labeled with ^3H in accordance with the standard method (Klimova et. al. 1993) were added into the donor chamber: complex of collagenolytic digestive protease from hydrobionts (Fermencol™, Table 3), Fe-superoxide dismutase from E. coli (Table 4) and fragments of rRNA 25-55 bases in length (Table 5).

**Q.** With insulin as the molecule, how does the “Effect of further increase of ammonium sulfate concentration on insulin diffusion from donor to acceptor solution” value [1] read?
**A.** does not influence the effectiveness of insulin diffusion

**Q.** What about the “Delivery through skin and mucous membranes” value [2] of the same molecule?
**A.** Positive results

B1: Fe-superoxide dismutase from E. coli: Fe-superoxide dismutase from E. coli, labeled with 3H (protein, UniProt P0AGD3 2-193, looked up)
Superoxide dismutase [Fe]: SFELPALPYAKDALAPHISAETIEYHYGKHHQTYVTNLNNLIKGTAFEGKSLEEIIRSSEGGVFNNAAQVWNHTFYWNCLAPNAGGEPTGKVAEAIAASFGSFADFKAQFTDAAIKNFGSGWTWLVKNSDGKLAIVSTSNAGTPLTTDATPLLTVDVWEHAYYIDYRNARPGYLEHFWALVNWEFVAKNLAA
modifications: tritium (3H) label
**Q.** With B1 as the molecule, how does the “^3H-labeled marker in receptor medium, % from initial” value (shortened to “^3H-labeled marker … % from initial”) ([3]; ammonium sulfate 0 M in donor medium, incubation 10 hrs) read?
**A.** 0.01%

**Q.** And the “^3H-labeled marker … % from initial” value ([3]; ammonium sulfate 0 M in donor medium, incubation 20 hrs)?
**A.** 0.05%

**Q.** What about the “^3H-labeled marker … % from initial” value ([3]; ammonium sulfate 0 M in donor medium, incubation 30 hrs) of the same molecule?
**A.** 0.07%

**Q.** And the “^3H-labeled marker … % from initial” value ([3]; ammonium sulfate 0 M in donor medium, incubation 40 hrs)?
**A.** 0.11%

**Q.** And the “^3H-labeled marker … % from initial” value ([3]; ammonium sulfate 0 M in donor medium, incubation 60 hrs)?
**A.** 0.34%

**Q.** And the “^3H-labeled marker … % from initial” value ([3]; ammonium sulfate 0.1 M in donor medium, incubation 10 hrs)?
**A.** 5.31%

**Q.** And the “^3H-labeled marker … % from initial” value ([3]; ammonium sulfate 0.1 M in donor medium, incubation 20 hrs)?
**A.** 10.00%

**Q.** What about the “^3H-labeled marker … % from initial” value ([3]; ammonium sulfate 0.1 M in donor medium, incubation 30 hrs) of the same molecule?
**A.** 12.06%

**Q.** What about the “^3H-labeled marker … % from initial” value ([3]; ammonium sulfate 0.1 M in donor medium, incubation 40 hrs) of the same molecule?
**A.** 17.99%

**Q.** What about the “^3H-labeled marker … % from initial” value ([3]; ammonium sulfate 0.1 M in donor medium, incubation 60 hrs) of the same molecule?
**A.** 20.11%

**Q.** And the “^3H-labeled marker … % from initial” value ([3]; ammonium sulfate 0.2 M in donor medium, incubation 10 hrs)?
**A.** 5.67%

**Q.** And the “^3H-labeled marker … % from initial” value ([3]; ammonium sulfate 0.2 M in donor medium, incubation 20 hrs)?
**A.** 12.56%

**Q.** And the “^3H-labeled marker … % from initial” value ([3]; ammonium sulfate 0.2 M in donor medium, incubation 30 hrs)?
**A.** 17.90%

**Q.** And the “^3H-labeled marker … % from initial” value ([3]; ammonium sulfate 0.2 M in donor medium, incubation 40 hrs)?
**A.** 27.60%

**Q.** And the “^3H-labeled marker … % from initial” value ([3]; ammonium sulfate 0.2 M in donor medium, incubation 60 hrs)?
**A.** 35.11%

**Q.** What about the “^3H-labeled marker … % from initial” value ([3]; ammonium sulfate 0.5 M in donor medium, incubation 10 hrs) of the same molecule?
**A.** 7.80%

**Q.** And the “^3H-labeled marker … % from initial” value ([3]; ammonium sulfate 0.5 M in donor medium, incubation 20 hrs)?
**A.** 10.81%

**Q.** What about the “^3H-labeled marker … % from initial” value ([3]; ammonium sulfate 0.5 M in donor medium, incubation 30 hrs) of the same molecule?
**A.** 16.94%

**Q.** What about the “^3H-labeled marker … % from initial” value ([3]; ammonium sulfate 0.5 M in donor medium, incubation 40 hrs) of the same molecule?
**A.** 31.00%

**Q.** And the “^3H-labeled marker … % from initial” value ([3]; ammonium sulfate 0.5 M in donor medium, incubation 60 hrs)?
**A.** 35.30%

**Q.** And the “^3H-labeled marker … % from initial” value ([3]; ammonium sulfate 1.0 M in donor medium, incubation 10 hrs)?
**A.** 7.67%

**Q.** What about the “^3H-labeled marker … % from initial” value ([3]; ammonium sulfate 1.0 M in donor medium, incubation 20 hrs) of the same molecule?
**A.** 10.33%

**Q.** And the “^3H-labeled marker … % from initial” value ([3]; ammonium sulfate 1.0 M in donor medium, incubation 30 hrs)?
**A.** 16.74%

**Q.** And the “^3H-labeled marker … % from initial” value ([3]; ammonium sulfate 1.0 M in donor medium, incubation 40 hrs)?
**A.** 31.00%

**Q.** And the “^3H-labeled marker … % from initial” value ([3]; ammonium sulfate 1.0 M in donor medium, incubation 60 hrs)?
**A.** 35.11%
